From the supplement of paper PMC10567573

B1: SLC19A2 (parent)
chain: FASLRPSEPFLTPYLLGPDKNLTE

Variants of: B1
Assay: protein stability index of a GFP-peptide fusion (GPS, HEK-293T) (PSI 1-6); higher = more stable
Details: c terminus: a fixed tail appended
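Note: lentivirally expressed fusions sorted by FACS into six bins by GFP to DsRed ratio, PSI derived from sequencing read proportions per bin multiplied by bin number.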

Protein stability index, by site and new letter:
T23: L 1.64, H 2.8, M 1.52, I 1.58, D 1.97, G 1.86, Q 3.16, C 2.12, K 2.09, V 1.29, E 2.02, P 2.31, R 1.42, Y 2.27, S 1.7, F 1.3, A 2.24, W 1.65, N 1.84
L15: N 2.3, T 2.19, K 1.84, P 1.97, M 2.23, G 1.77, V 1.86, S 1.79, H 1.55, R 1.68, F 1.67, I 1.99, E 2.03, W 1.44, Y 1.78, Q 1.76
L16: C 2.07, I 1.51, Q 1.8, V 1.79, F 2.04, E 2.21, K 2.27, D 2.65, S 2.56, W 2.14, P 1.79, N 2.12, A 2.31, Y 1.3, G 2.85, T 1.8, M 1.79, H 2.86, R 2.44
G17: L 2.22, C 1.05, H 1.75, R 1.99, I 4.07, N 2.06, S 2.41, E 1.86, P 2.62, F 2.15, T 1.96, K 2.23, Q 2.23, A 1.81, W 2.1, V 1.89, Y 1.79, D 1.59, M 1.7
K20: Q 2.05, A 2.14, F 1.62, D 2.1, Y 1.28, I 2.44, R 1.94, M 1.98, G 2.04, N 2.13, W 2.04, P 1.92, S 2.29, L 2.1, E 1.94, T 1.45, C 1.18, V 1.84, H 1.97
E24: T 1.8, N 1.38, V 1.49, Q 2.06, F 2.45, R 2.39, C 2.46, D 2.01, P 2.41, A 1.89, S 1.94, K 1.96, G 2.15, W 2.43, H 1.93, L 1.27, I 2.1, M 2.03, Y 2.08
P18: D 2, G 1.51, Y 1.61, T 1.4, E 2.27, A 1.65, V 1.41, K 2.12, C 1.98, M 2.06, S 1.87, N 1.48, H 2.53, R 1.55, F 1.54, Q 2, W 1.76, L 1.8, I 2.31
L22: Y 1.84, Q 1.99, I 1.86, S 2.1, D 2.65, E 2.03, W 1.98, M 1.59, C 1.96, N 2.35, K 2.34, H 2.16, G 2.04, V 1.52, F 1.62, A 2.1, R 1.92, P 1.86, T 2.25
D19: H 1.57, K 1.58, W 3.08, T 1.9, S 2.5, R 2.25, Q 1.57, L 1.58, Y 2.89, I 1.92, V 2.16, M 2.1, F 1.87, E 2.24, C 1.44, G 1.75, A 1.56, N 1.46
